B1: human NUFIP2 (aa 255–411) (domain or fragment, UniProt Q7Z417 255-411, looked up)
chain: KQGLETFKPDYSEQKGNRVDGSKPIWKYETGPGGTSRGKPAVGDMLRKSSDSKPGVSSKKFDDRPKGKHASAVASKEDSWTLFKPPPVFPVDNSSAKIVPKISYASKVKENLNKTIQNSSVSPTSSSSSSSSTGETQTQSSSRLSQVPMSALKSVTS
notes: His6-SUMO cleaved off by PreScission protease; source: E. coli BL21(DE3)pRIL, purified (HisTrap, ion exchange, Superdex 75); not shown: His6-SUMO, N-terminal, cleaved

The target of experiment [1] is T1, mouse Roquin-1 (aa 2–441) (mouse, UniProt Q4VGL6 2-441).
T1 construct: mouse Roquin-1 aa 2-441; also called Roquin (aa 2–441)
T1 sequence (looked up): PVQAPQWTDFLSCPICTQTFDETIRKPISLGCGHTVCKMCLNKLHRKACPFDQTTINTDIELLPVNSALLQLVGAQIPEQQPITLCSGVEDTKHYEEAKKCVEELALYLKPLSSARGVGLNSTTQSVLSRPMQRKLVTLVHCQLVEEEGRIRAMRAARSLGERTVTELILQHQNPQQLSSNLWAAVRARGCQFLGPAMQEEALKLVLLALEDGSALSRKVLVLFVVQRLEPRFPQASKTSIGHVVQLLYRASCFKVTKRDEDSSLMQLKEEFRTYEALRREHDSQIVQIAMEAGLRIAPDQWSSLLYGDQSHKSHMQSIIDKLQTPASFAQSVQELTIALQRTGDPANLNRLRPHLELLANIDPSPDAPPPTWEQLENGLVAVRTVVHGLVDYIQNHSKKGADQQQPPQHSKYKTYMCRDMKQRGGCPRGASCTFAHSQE
As to the kind of experiment: SPR; BIACORE 3000; Roquin (aa 2–441) immobilised on CM5 chip by amine coupling; NUFIP2 (aa 255–411) injected at 0.063-4 μM, 30 μL/min, 20 °C; 150 mM NaCl, 0.05% Tween20, 10 mM HEPES; steady-state analysis. Particulars: both partners purified. Background: SPR reads the build-up and loss of mass on a sensor chip optically.

Experiment [2] has as its target B1. As to the kind of experiment: SPR; BIACORE 3000; Roquin (aa 2–441) immobilised; 4 μM NUFIP2 (aa 255–411) injected together with 0.016, 0.063, 0.25 or 1 μM FMRP (aa 1–132); 250 mM NaCl, 0.05% Tween20, 10 mM HEPES. To be noted: both partners purified.

With B1, in experiment [1], the Kd – broadly, the constant that tells how readily two partners part at equilibrium – was determined as 182 nM.

B2: mouse Fmrp (aa 1–132) (domain or fragment)
chain: not shown
notes: His6-GST cut off by PreScission protease; source: E. coli BL21Star(DE3), purified (HisTrap, GSTTrap, Superdex 75); not shown: His6-GST, N-terminal, cleaved
In the case of B2, the binding result in experiment [2] is “binds”.

The values above are taken from publication PMC5775257, “Binding of NUFIP2 to Roquin promotes recognition and regulation of ICOS mRNA” (Nature Communications, 2018).
